According to patent US20240261333A1, “NOVEL TARGETS FOR ENHANCING ANTI-TUMOR IMMUNITY” (THE BROAD INSTITUTE, INC., priority 2021, published 2024):

What was measured:
Assay in all cases: co-IP with anti-FLAG, C-FLAG B3GNT2, mass spectrometry
[1] = biological target: CCT3 (human) (UniProt P49368)
[2] = biological target: SYNM (human) (UniProt O15061)
[3] = biological target: SYNCRIP (human) (UniProt O60506)
[4] = biological target: PLOD1 (human) (UniProt Q02809)
[5] = biological target: MAP4 (human) (UniProt P27816)
[6] = biological target: XPOT (human) (UniProt O43592)
[7] = biological target: GSN (human) (UniProt P06396)
[8] = biological target: EIF3A (human) (UniProt Q14152)
[9] = biological target: COPA (human) (UniProt P53621)
[10] = biological target: XPO1 (human) (UniProt O14980)
[11] = biological target: RPL8 (human) (UniProt P62917)
[12] = biological target: RUVBL2 (human) (UniProt Q9Y230)
[13] = biological target: CPT1A (human) (UniProt P50416)
[14] = biological target: RBM14 (human) (UniProt Q96PK6)
[15] = biological target: PRRC2C (human) (UniProt Q9Y520)
[16] = biological target: RPL7 (human) (UniProt P18124)
[17] = biological target: ARPC1B (human) (UniProt O15143)
[18] = biological target: TTC13 (human) (UniProt Q8NBP0)
[19] = biological target: TPM2 (human) (UniProt P07951)
[20] = biological target: RPL7A (human) (UniProt P62424)
[21] = biological target: TM9SF1 (human) (UniProt O15321)
[22] = biological target: SERPINB3 (human) (UniProt P29508)
[23] = biological target: IL13RA2 (human) (UniProt Q14627)
[24] = biological target: SYNPO (human) (UniProt Q8N3V7)
[25] = biological target: TELO2 (human) (UniProt Q9Y4R8)
[26] = biological target: CALML5 (human) (UniProt Q9NZT1)
[27] = biological target: PPFIBP1 (human) (UniProt Q86W92)
[28] = biological target: DHX9 (human) (UniProt Q08211)
[29] = biological target: EMILIN1 (human) (UniProt Q9Y6C2)
[30] = biological target: GEMIN4 (human) (UniProt P57678)
[31] = biological target: RPL6 (human) (UniProt Q02878)
[32] = biological target: SPARC (human) (UniProt P09486)
[33] = biological target: LCN1 (human) (UniProt P31025)
[34] = biological target: RHOT2 (human) (UniProt Q8IXI1)
[35] = biological target: P4HA2 (human) (UniProt O15460)
[36] = biological target: GBF1 (human) (UniProt Q92538)

Substance: C-terminal FLAG tagged B3GNT2 (from UniProt Q9NY97 1-397) (enzyme)
- co-IP mass spectrometry count [1]: 5
- co-IP mass spectrometry count [2]: 5
- co-IP mass spectrometry count [3]: 13
- co-IP/MS count, C-term flag [4]: 4
- co-IP mass spectrometry count [5]: 5
- co-IP/MS count, C-term flag [6]: 2
- co-IP mass spectrometry count [7]: 3
- co-IP mass spectrometry count [8]: 3
- co-IP/MS count, C-term flag [9]: 2
- co-IP/MS count, C-term flag [10]: 2
- co-IP mass spectrometry count [11]: 15
- co-IP/MS count, C-term flag [12]: 4
- co-IP/MS count, C-term flag [13]: 2
- co-IP/MS count, C-term flag [14]: 2
- co-IP/MS count, C-term flag [15]: 15
- co-IP mass spectrometry count [16]: 21
- co-IP/MS count, C-term flag [17]: 5
- co-IP/MS count, C-term flag [18]: 4
- co-IP/MS count, C-term flag [19]: 4
- co-IP/MS count, C-term flag [20]: 22
- co-IP/MS count, C-term flag [21]: 4
- co-IP mass spectrometry count [22]: 9
- co-IP mass spectrometry count [23]: 2
- co-IP mass spectrometry count [24]: 7
- co-IP mass spectrometry count [25]: 3
- co-IP mass spectrometry count [26]: 4
- co-IP mass spectrometry count [27]: 3
- co-IP mass spectrometry count [28]: 5
- co-IP mass spectrometry count [29]: 3
- co-IP mass spectrometry count [30]: 5
- co-IP/MS count, C-term flag [31]: 20
- co-IP/MS count, C-term flag [32]: 4
- co-IP mass spectrometry count [33]: 11
- co-IP mass spectrometry count [34]: 2
- co-IP/MS count, C-term flag [35]: 4
- co-IP mass spectrometry count [36]: 5
